Consider 42 molecules from patent US20240092919A1 (Ablynx, published 2024).

The labels stand for the following.
T1: Cynomolgus TCR(AEA41865/AEA41866)-zipper protein (cynomolgus monkey)
T1 construct: also called cyTCR-zipper protein; cynoTCR zipper
T1 TCR alpha: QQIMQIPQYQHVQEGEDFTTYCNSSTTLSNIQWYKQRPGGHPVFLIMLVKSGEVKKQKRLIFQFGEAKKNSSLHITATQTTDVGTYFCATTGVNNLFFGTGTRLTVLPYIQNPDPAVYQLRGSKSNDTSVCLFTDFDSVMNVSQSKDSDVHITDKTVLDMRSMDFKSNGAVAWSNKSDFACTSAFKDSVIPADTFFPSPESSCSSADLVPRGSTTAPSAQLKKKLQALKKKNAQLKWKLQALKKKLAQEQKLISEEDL
T1 TCR beta: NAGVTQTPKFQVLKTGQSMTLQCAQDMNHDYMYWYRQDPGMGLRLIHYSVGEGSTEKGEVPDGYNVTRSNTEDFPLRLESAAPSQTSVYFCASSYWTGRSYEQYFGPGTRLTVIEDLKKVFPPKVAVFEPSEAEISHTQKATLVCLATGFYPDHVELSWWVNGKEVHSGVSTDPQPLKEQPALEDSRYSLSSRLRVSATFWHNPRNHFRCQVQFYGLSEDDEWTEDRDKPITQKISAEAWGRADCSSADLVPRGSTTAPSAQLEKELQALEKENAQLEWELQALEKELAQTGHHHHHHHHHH

B1: T017000354 (VHH)
VHH: EVQLVESGGGVVQPGGSLRLSCVASGAVHKINFYGWYRQAPGKEREKVAHISIGDQTDYADSAKGRFTISRDESKNMVYLQMNSLRPEDTALYFCRAMSRIWPYDYWGQGTLVTVSS
B2: T017000418 (VHH)
VHH: B1 VHH with I31L, W102Y
B3: T017000370 (VHH)
VHH: B1 VHH with K30Q
B4: T017000411 (VHH)
VHH: B1 VHH with G26W, A27D
B5: T017000369 (VHH)
VHH: B1 VHH with A27S, I31L, Y106W
B6: T017000386 (VHH)
VHH: B1 VHH with A27S, I31L, Y34L, M98F, Y106W
B7: T017000381 (VHH)
VHH: B1 VHH with Y34L, W102Y
B8: T017000355 (VHH)
VHH: B1 VHH with G26W, A27D, K30Q, I31L
B9: T017000373 (VHH)
VHH: B1 VHH with A27S, I31L, Y34L
B10: T017000378 (VHH)
VHH: B1 VHH with G26W, A27D, R100K
B11: T017000371 (VHH)
VHH: B1 VHH with A27Y
B12: T017000397 (VHH)
VHH: B1 VHH with A27S, K30Q, I31L, Y34L
B13: T017000432 (VHH)
VHH: B1 VHH with A27S, I31L, R100K
B14: T017000434 (VHH)
VHH: B1 VHH with A27S, I31L, W102Y
B15: T017000363 (VHH)
VHH: B1 VHH with A27S, W102Y
B16: T017000382 (VHH)
VHH: B1 VHH with A27S, W102Y, Y106W
B17: T017000423 (VHH)
VHH: B1 VHH with A27S, K30Q, Y34L
B18: T017000410 (VHH)
VHH: B1 VHH with A27Y, I31L, M98F, Y106W
B19: T017000384 (VHH)
VHH: B1 VHH with K30Q, I31L
B20: T017000377 (VHH)
VHH: B1 VHH with G26W, A27D, W102Y
B21: T017000357 (VHH)
VHH: B1 VHH with A27Y, K30Q, I31L
B22: T017000403 (VHH)
VHH: B1 VHH with G26W, A27D, K30Q, Y34L
B23: T017000379 (VHH)
VHH: B1 VHH with G26W, A27D, K30Q, R100K
B24: T017000372 (VHH)
VHH: B1 VHH with A27Y, W102Y
B25: T017000374 (VHH)
VHH: B1 VHH with G26Y, A27D, K30Q, R100K
B26: T017000406 (VHH)
VHH: B1 VHH with A27Y, K30Q
B27: T017000415 (VHH)
VHH: B1 VHH with G26W, A27D, K30Q
B28: T017000419 (VHH)
VHH: B1 VHH with I31L
B29: T017000367 (VHH)
VHH: B1 VHH with A27Y, Y34L
B30: T017000356 (VHH)
VHH: B1 VHH with A27S, I31L
B31: T017000361 (VHH)
VHH: B1 VHH with A27S, Y34L
B32: T017000401 (VHH)
VHH: B1 VHH with A27S, Y106W
B33: T017000413 (VHH)
VHH: B1 VHH with G26W, A27D, K30Q, I31L, R100K
B34: T017000364 (VHH)
VHH: B1 VHH with K30Q, Y34L
B35: T017000408 (VHH)
VHH: B1 VHH with A27S
B36: T017000391 (VHH)
VHH: B1 VHH with W102Y
B37: T017000360 (VHH)
VHH: B1 VHH with G26W, A27S, K30Q, I31L, R100K, W102Y, Y106W
B38: T017000365 (VHH)
VHH: B1 VHH with I31L, Y34L, Y106W
B39: T017000398 (VHH)
VHH: B1 VHH with G26Y, A27D, K30Q
B40: T017000359 (VHH)
VHH: B1 VHH with G26W, A27D, K30Q, M98F, R100K, W102Y
B41: T017000362 (VHH)
VHH: B1 VHH with G26Y, A27D, R100K
B42: T017000368 (VHH)
VHH: B1 VHH with G26W, A27D, K30Q, W102Y

Positions count from the first letter of the chain named.

The target in this experiment is T1, Cynomolgus …. In words: SPR ProteOn off-rate screen.
The term koff denotes the first-order rate constant of dissociation. Low readings indicate a long-lived complex, high ones a short-lived complex. B1 returned a koff of 0.000875 s⁻¹.

Regarding B2, the koff is 0.00187 s⁻¹.

Take B3: the koff came out at 0.00215 s⁻¹.

In turn, B4 came in with an off-rate constant (koff) of 0.00156 s⁻¹.

In turn, B5 returned a koff of 0.00155 s⁻¹.

In the case of B6, the koff came out at 0.00206 s⁻¹.

B7 displayed a koff of 0.00216 s⁻¹.

Turning to B8, the koff was determined as 0.00145 s⁻¹.

With B9, the koff was found to be 0.000913 s⁻¹.

In the case of B10, the off-rate constant (koff) stood at 0.000249 s⁻¹.

In turn, B11 came in with a koff of 0.000612 s⁻¹.

For B12, the koff worked out at 0.00245 s⁻¹.

For B13, the koff was 0.000142 s⁻¹.

B14 displayed a koff of 0.00153 s⁻¹.

Take B15: the koff came to 0.00127 s⁻¹.

For B16, the koff came to 0.00289 s⁻¹.

Molecule B17 returned a koff of 0.00184 s⁻¹.

Consider B18, for which the koff was found to be 0.00159 s⁻¹.

Consider B19, for which the koff worked out at 0.00383 s⁻¹.

For the molecule B20, the koff is 0.00214 s⁻¹.

Take B21: the koff was determined as 0.00251 s⁻¹.

For B22, the koff was determined as 0.00152 s⁻¹.

Molecule B23 showed a koff of 0.000152 s⁻¹.

In the case of B24, the koff came out at 0.00122 s⁻¹.

Molecule B25 yielded a koff of 0.000523 s⁻¹.

The molecule B26 came in with a koff of 0.00138 s⁻¹.

With B27, the koff is 0.000918 s⁻¹.

With B28, the koff stood at 0.0011 s⁻¹.

Regarding B29, the koff turned out to be 0.0011 s⁻¹.

In turn, B30 had a koff of 0.00089 s⁻¹.

In turn, B31 yielded a koff of 0.000982 s⁻¹.

In the case of B32, the koff worked out at 0.00183 s⁻¹.

The molecule B33 registered a koff of 0.000238 s⁻¹.

As for B34, the koff turned out to be 0.0026 s⁻¹.

In turn, B35 gave a koff of 0.000714 s⁻¹.

Molecule B36 came in with a koff of 0.00161 s⁻¹.

In the case of B37, the koff is 0.00243 s⁻¹.

B38: the koff is 0.00201 s⁻¹.

Consider B39, for which the dissociation rate constant (koff) was 0.00263 s⁻¹.

In turn, B40 registered a koff of 0.000401 s⁻¹.

Take B41: the koff is 0.000577 s⁻¹.

Molecule B42 registered a koff of 0.00129 s⁻¹.
